Data set [1] deals with HeLa Kyoto. Put plainly: solubility in G1/S (NP-40 vs SDS abundance) (log2 ratio); higher = more soluble. To be noted: cell cycle stage: G1/S.
Data set [2] has as its system HeLa Kyoto. Put plainly: solubility change mitosis vs G1/S (difference of NP-40 vs SDS log2 ratios) (log2 ratio difference); higher = more soluble in mitosis.
Data set [3] relates to HeLa Kyoto. Put plainly: melting temperature (median over replicates), in situ; higher = more thermally stable.
In data set [4] the test system is HeLa Kyoto. Description: thermal stability score vs G1/S (z-score of summed log2 fold changes over temperatures); higher = more thermally stable than in G1/S.
The mark [5] stands for this setting: cell cycle stage: early G1 (4.5 h after nocodazole release).
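Throughout, for melting temperature (median over replicates), in situ: HeLa Kyoto cells synchronized by double thymidine or nocodazole block, proteins quantified by TMT10plex mass spectrometry, three independent biological replicates.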
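Throughout, for solubility change mitosis vs G1/S (difference of NP-40 vs SDS log2 ratios): synchronized HeLa Kyoto cells (double thymidine block for G1/S, nocodazole release for mitosis), protein amounts in NP-40 versus SDS lysates quantified by mass spectrometry, three biological replicates.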
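Throughout, for solubility in G1/S (NP-40 vs SDS abundance): HeLa Kyoto cells arrested at G1/S by double thymidine block, proteins quantified by TMT10plex mass spectrometry in mild NP-40 versus SDS extracts, three biological replicates.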
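Throughout, for thermal stability score vs G1/S (z-score of summed log2 fold changes over temperatures): synchronized HeLa Kyoto cells, proteins quantified by TMT10plex mass spectrometry, three biological replicates, mitosis taken 0.5 h after nocodazole release, G1/S directly after double thymidine block.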

For “MLCSLLLCECLLLVAGYAHDDDWIDPTDMLNYDAASGTMRKSQAKYGISGEKDVSPDLSCADEISECYHKLDSLTYKIDECEKKKREDYESQSNPVFRRYLNKILIEAGKLGLPDENKGDMHYDAEIILKRETLLEIQKFLNGEDWKPGALDDALSDILINFKFHDFETWKWRFEDSFGVDPYNVLMVLLCLLCIVVLVATELWTYVRWYTQLRRVLIISFLFSLGWNWMYLYKLAFAQHQAEVAKMEPLNNVCAKKMDWTGSIWEWFRSSWTYKDDPCQKYYELLLVNPIWLVPPTKALAVTFTTFVTEPLKHIGKGTGEFIKALMKEIPALLHLPVLIIMALAILSFCYGAGKSVHVLRHIGGPESEPPQALRPRDRRRQEEIDYRPDGGAGDADFHYRGQMGPTEQGPYAKTYEGRREILRERDVDLRFQTGNKSPEVLRAFDVPDAEAREHPTVVPSHKSPVLDTKPKETGGILGEGTPKESSTESSQSAKPVSGQDTSGNTEGSPAAEKAQLKSEAAGSPDQGSTYSPARGVAGPRGQDPVSSPCG [CLCC1]”, the “solubility in G1/S (log2)” value in data set [1] was -0.212. In data set [2], the “solubility change mitosis (log2)” value was -0.123. The results for the melting temperature in data set [3] (cell cycle stage: G1/S) and in data set [3] (cell cycle stage: mitosis) were 56 °C and 58.6 °C, respectively. Further, the thermal stability score in data set [4] (setting [5]) is -0.638; in data set [4] (cell cycle stage: mitosis), 1.19.

For the sequence “MLCVGRLGGLGARAAALPPRRAGRGSLEAGIRARRVSTSWSPVGAAFNVKPQGSRLDLFGERRGLFGVPELSAPEGFHIAQEKALRKTELLVDRACSTPPGPQTVLIFDELSDSLCRVADLADFVKIAHPEPAFREAAEEACRSIGTMVEKLNTNVDLYQSLQKLLADKKLVDSLDPETRRVAELFMFDFEISGIHLDKEKRKRAVDLNVKILDLSSTFLMGTNFPNKIEKHLLPEHIRRNFTSAGDHIIIDGLHAESPDDLVREAAYKIFLYPNAGQLKCLEELLSSRDLLAKLVGYSTFSHRALQGTIAKNPETVMQFLEKLSDKLSERTLKDFEMIRGMKMKLNPQNSEVMPWDPPYYSGVIRAERYNIEPSLYCPFFSLGACMEGLNILLNRLLGISLYAEQPAKGEVWSEDVRKLAVVHESEGLLGYIYCDFFQRADKPHQDCHFTIRGGRLKEDGDYQLPVVVLMLNLPRSSRSSPTLLTPSMMENLFHEMGHAMHSMLGRTRYQHVTGTRCPTDFAEVPSILMEYFANDYRVVNQFARHYQTGQPLPKNMVSRLCESKKVCAAADMQLQVFYATLDQIYHGKHPLRNSTTDILKETQEKFYGLPYVPNTAWQLRFSHLVGYGARYYSYLMSRAVASMVWKECFLQDPFNRAAGERYRREMLAHGGGREPMLMVEGMLQKCPSVDDFVSALVSDLDLDFETFLMDSE [MIPEP]”, in data set [1], the “solubility in G1/S (log2)” value was -0.0439. The “solubility change mitosis (log2)” value in data set [2] is -0.0647. In addition, the figures for the melting temperature in data set [3] (cell cycle stage: G1/S) and in data set [3] (cell cycle stage: mitosis) were 51.2 °C and 50.4 °C, respectively. For the same sequence, the thermal stability score in data set [4] (setting [5]) is 0.154; in data set [4] (cell cycle stage: mitosis) it was 0.0672.

For “MLFNSVLRQPQLGVLRNGWSSQYPLQSLLTGYQCSGNDEHTSYGETGVPVPPFGCTFSSAPNMEHVLAVANEEGFVRLYNTESQSFRKKCFKEWMAHWNAVFDLAWVPGELKLVTAAGDQTAKFWDVKAGELIGTCKGHQCSLKSVAFSKFEKAVFCTGGRDGNIMVWDTRCNKKDGFYRQVNQISGAHNTSDKQTPSKPKKKQNSKGLAPSVDFQQSVTVVLFQDENTLVSAGAVDGIIKVWDLRKNYTAYRQEPIASKSFLYPGSSTRKLGYSSLILDSTGSTLFANCTDDNIYMFNMTGLKTSPVAIFNGHQNSTFYVKSSLSPDDQFLVSGSSDEAAYIWKVSTPWQPPTVLLGHSQEVTSVCWCPSDFTKIATCSDDNTLKIWRLNRGLEEKPGGDKLSTVGWASQKKKESRPGLVTVTSSQSTPAKAPRAKCNPSNSSPSSAACAPSCAGDLPLPSNTPTFSIKTSPAKARSPINRRGSVSSVSPKPPSSFKMSIRNWVTRTPSSSPPITPPASETKIMSPRKALIPVSQKSSQAEACSESRNRVKRRLDSSCLESVKQKCVKSCNCVTELDGQVENLHLDLCCLAGNQEDLSKDSLGPTKSSKIEGAGTSISEPPSPISPYASESCGTLPLPLRPCGEGSEMVGKENSSPENKNWLLAMAAKRKAENPSPRSPSSQTPNSRRQSGKKLPSPVTITPSSMRKICTYFHRKSQEDFCGPEHSTEL [DTL]”, in data set [1], the “solubility in G1/S (log2)” value was -0.00542. The “solubility change mitosis (log2)” value in data set [2] is -0.0846. Also, the melting temperature in data set [3] (cell cycle stage: G1/S) amounted to 50.4 °C; in data set [3] (cell cycle stage: mitosis) it was 50.1 °C. In addition, the results for the thermal stability score in data set [4] (setting [5]) and in data set [4] (cell cycle stage: mitosis) were -1.36 and -1.25, respectively.

In the case of “MLGARAWLGRVLLLPRAGAGLAASRRGSSSRDKDRSATVSSSVPMPAGGKGSHPSSTPQRVPNRLIHEKSPYLLQHAYNPVDWYPWGQEAFDKARKENKPIFLSVGYSTCHWCHMMEEESFQNEEIGRLLSEDFVSVKVDREERPDVDKVYMTFVQATSSGGGWPMNVWLTPNLQPFVGGTYFPPEDGLTRVGFRTVLLRIREQWKQNKNTLLENSQRVTTALLARSEISVGDRQLPPSAATVNNRCFQQLDEGYDEEYGGFAEAPKFPTPVILSFLFSYWLSHRLTQDGSRAQQMALHTLKMMANGGIRDHVGQGFHRYSTDRQWHVPHFEKMLYDQAQLAVAYSQAFQLSGDEFYSDVAKGILQYVARSLSHRSGGFYSAEDADSPPERGQRPKEGAYYVWTVKEVQQLLPEPVLGATEPLTSGQLLMKHYGLTEAGNISPSQDPKGELQGQNVLTVRYSLELTAARFGLDVEAVRTLLNSGLEKLFQARKHRPKPHLDSKMLAAWNGLMVSGYAVTGAVLGQDRLINYATNGAKFLKRHMFDVASGRLMRTCYTGPGGTVEHSNPPCWGFLEDYAFVVRGLLDLYEASQESAWLEWALRLQDTQDKLFWDSQGGGYFCSEAELGAGLPLRLKDDQDGAEPSANSVSAHNLLRLHGFTGHKDWMDKCVCLLTAFSERMRRVPVALPEMVRALSAQQQTLKQIVICGDRQAKDTKALVQCVHSVYIPNKVLILADGDPSSFLSRQLPFLSTLRRLEDQATAYVCENQACSVPITDPCELRKLLHP [SPATA20]”, the “solubility in G1/S (log2)” value in data set [1] stood at 0.267. In data set [2], the “solubility change mitosis (log2)” value is -0.304. Further, the figures for the melting temperature in data set [3] (cell cycle stage: G1/S) and in data set [3] (cell cycle stage: mitosis) were 51.6 °C and 52.6 °C, respectively. In addition, the thermal stability score in data set [4] (setting [5]) amounted to 0.594; in data set [4] (cell cycle stage: mitosis), 0.85.

(Values after the supplement of paper PMC5998384.)
